In article doi:10.1101/2023.07.05.547778 (bioRxiv, 2023):
Where no end group is shown, it is not given here. The star is where a group is joined. Biotin = O=C1N[C@H]2[C@H](CS[C@H]2CCCCC(=O)*)N1

Assays:
[1] = molecular target: T1, APDTRPAPG (synthetic MUC1 epitope peptide without N-terminal biotin or linker); test: crystal structure
T1 chain: APDTRPAPG

[2] = molecular target: T2, biotin-GGS-APDTRPAPG (N-terminally biotinylated synthetic MUC1 VNTR peptide); test: SPR
T2 chain: Biotin-GGSAPDTRPAPG

B1: recombinant 139H2 Fab fragment (Fab, V domains shown)
VH: QVQLQQSGAELVKPGASVKLSCKASGYTFTNYYMYWVLQRPGQGLEWIGEINPSNGGTTFNEKFKNKATLTVDKSSSTAYMQLNSLTSEDSAVYYCTRSRYGNYVNYGMDYWGQGTSVTVSS
VL: DIVMSQSPSSLAVSVGEKVTMSCKSSQSLLYSNTQKNYLAWYQQKPGQSPKLLIYWASTRESGVPDRFTGSGSGTDFTLTISSVKAENLAVYYCQQYYRYPPTFGGGTKLELK
With B1 the binding result [1] was “binds” and the Kd [2] was 4.5 µM.
